B1: bispecific antibody CS3 (bispecific antibody, human IgG1, kappa)
light: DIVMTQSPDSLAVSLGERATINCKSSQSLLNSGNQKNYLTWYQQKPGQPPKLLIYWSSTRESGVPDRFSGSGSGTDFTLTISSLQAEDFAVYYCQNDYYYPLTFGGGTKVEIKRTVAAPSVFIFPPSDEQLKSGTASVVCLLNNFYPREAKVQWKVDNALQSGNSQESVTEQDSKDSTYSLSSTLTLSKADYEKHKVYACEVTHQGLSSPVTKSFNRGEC
heavy 1: EVQLVESGGGLVKPGGSLRLSCAASGFSFSNSAMSWVRQAPGKGLEWVSTISSGDSYTYYADSVKGRFTISRDNAKNSLYLQMNSLRAEDTAVYYCARQGYGNALDYWGQGTLVTVSSASTKGPSVFPLAPSSKSTSGGTAALGCLVKDYFPEPVTVSWNSGALTSGVHTFPAVLQSSGLYSLSSVVTVPSSSLGTQTYICNVNHKPSNTKVDKKVEPKSCDKTHTCPPCPAPPVAGPSVFLFPPKPKDTLMISRTPEVTCVVVDVSHEAPEVQFNWYVDGVEVHNAKTKPREEQFNSTFRVVSVLTVVHQDWLNGKEYKCKVSNKGLPAPIEKTISKTKGQPREPQVYTLPPCRDELTKNQVSLWCLVKGFYPSDIAVEWESNGQPENNYKTTPPVLDSDGSFFLYSKLTVDKSRWQQGNVFSCSVMHEALHNHYTQKSLSLSPGK
heavy 2: EVQLVESGGGLVKPGGSLRLSCAASGFSFSNSAMSWVRQAPGKGLEWVSTISSGDSYTYYADSVKGRFTISRDNAKNSLYLQMNSLRAEDTAVYYCARQGYGNALDYWGQGTLVTVSSASTKGPSVFPLAPSSKSTSGGTAALGCLVKDYFPEPVTVSWNSGALTSGVHTFPAVLQSSGLYSLSSVVTVPSSSLGTQTYICNVNHKPSNTKVDKKVEPKSCDKTHTAPAPAPAPAPAPAPAPQVQLVESGGGVVQPGRSLRLSCAASGFTFSTYAMNWVRQAPGKGLEWVARIRSKYNNYATYYADSVKDRFTISRDDSKNTLYLQMNSLRAEDTAVYYCARHGNFGNSYVSWFAYWGQGTLVTVSSGGGGSGGGGSGGGGSQTVVTQEPSLTVSPGGTVTLTCRSSTGAVTTSNYANWVQQKPGQAPRGLIGGTNKRAPGVPARFSGSLLGGKAALTLSGVQPEDEAEYYCALWYSNLWVFGGGTKVEIKGGGGSDKTHTCPPCPAPPVAGPSVFLFPPKPKDTLMISRTPEVTCVVVDVSHEAPEVQFNWYVDGVEVHNAKTKPREEQFNSTFRVVSVLTVVHQDWLNGKEYKCKVSNKGLPAPIEKTISKTKGQPREPQVCTLPPSRDELTKNQVSLSCAVKGFYPSDIAVEWESNGQPENNYKTTPPVLDSDGSFFLVSKLTVDKSRWQQGNVFSCSVMHEALHNHYTQKSLSLSPGK
notes: CSBODY structure: two 1E9.2 Fab arms; second heavy chain (first heavy entry) and first heavy chain with anti-CD3 scFv (2a5) between CH1 and Fc2
B2: bispecific antibody Y18 (bispecific antibody, human IgG1, kappa)
light: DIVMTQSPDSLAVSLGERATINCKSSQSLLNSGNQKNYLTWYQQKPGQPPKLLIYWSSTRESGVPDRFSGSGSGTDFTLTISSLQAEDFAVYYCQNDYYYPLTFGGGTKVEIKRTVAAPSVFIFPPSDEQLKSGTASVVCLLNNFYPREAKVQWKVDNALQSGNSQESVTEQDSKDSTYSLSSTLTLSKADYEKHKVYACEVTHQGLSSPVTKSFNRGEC
heavy: B1 heavy 1
chain: not shown
notes: YBODY structure: anti-CLDN18.2 Fab arm (1E9.2) and second monomer anti-CD3 scFv (L2K)-Fc
B3: bispecific antibody CS10 (bispecific antibody, human IgG1, kappa)
light: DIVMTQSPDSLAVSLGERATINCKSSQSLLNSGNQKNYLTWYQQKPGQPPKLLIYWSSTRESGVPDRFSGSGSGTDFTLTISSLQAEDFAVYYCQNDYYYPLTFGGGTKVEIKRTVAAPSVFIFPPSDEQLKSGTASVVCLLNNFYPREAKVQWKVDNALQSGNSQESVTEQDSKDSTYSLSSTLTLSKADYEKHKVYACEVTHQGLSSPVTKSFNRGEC
heavy 1: B1 heavy 1
heavy 2: not shown
notes: CSBODY structure: two 1E9.2 Fab arms; second heavy chain (first heavy entry) and first heavy chain with anti-CD3 scFv (L2K) between CH1 and Fc2
B4: bispecific antibody Y4 (bispecific antibody, human IgG1, kappa)
light: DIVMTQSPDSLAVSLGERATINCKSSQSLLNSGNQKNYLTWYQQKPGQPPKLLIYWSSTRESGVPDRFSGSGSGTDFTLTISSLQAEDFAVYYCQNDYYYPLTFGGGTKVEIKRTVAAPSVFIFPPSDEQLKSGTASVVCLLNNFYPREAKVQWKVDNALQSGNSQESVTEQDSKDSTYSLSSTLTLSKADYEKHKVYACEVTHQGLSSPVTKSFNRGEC
heavy: B1 heavy 1
chain: QVQLVESGGGVVQPGRSLRLSCAASGFTFSTYAMNWVRQAPGKGLEWVARIRSKYNNYATYYADSVKDRFTISRDDSKNTLYLQMNSLRAEDTAVYYCARHGNFGNSYVSWFAYWGQGTLVTVSSGGGGSGGGGSGGGGSQTVVTQEPSLTVSPGGTVTLTCRSSTGAVTTSNYANWVQQKPGQAPRGLIGGTNKRAPGVPARFSGSLLGGKAALTLSGVQPEDEAEYYCALWYSNLWVFGGGTKVEIKGRGRGSDKTHTCPPCPAPPVAGPSVFLFPPKPKDTLMISRTPEVTCVVVDVSHEAPEVQFNWYVDGVEVHNAKTKPREEQFNSTFRVVSVLTVVHQDWLNGKEYKCKVSNKGLPAPIEKTISKTKGQPREPQVCTLPPSRDELTKNQVSLSCAVKGFYPSDIAVEWESNGQPENNYKTTPPVLDSDGSFFLVSKLTVDKSRWQQGNVFSCSVMHEALHNHYTQKSLSLSPGK
notes: YBODY structure: anti-CLDN18.2 Fab arm (1E9.2) and second monomer anti-CD3 scFv (2a5)-Fc

Key:
human CD3 antigen = molecular target: T1, human CD3 antigen (human, UniProt P07766 23-126); test: SPR (Biacore T200), human CD3 antigen amine-coupled on CM5 chip, 1:1 fit
T1 construct: also called Human CD3ϵ
Experimental: After the detection was completed, data fitting was carried out on the result pattern by adopting Biacore T200 Evaluation Software in a 1:1 binding fitting mode to obtain an equilibrium dissociation constant (KD).

Human CLDN18.2 [1] = molecular target: T2, Human CLDN18.2 (human); test: flow cytometry, NUGC4-hCLDN18.2 cells
T2 construct: the cell line is named under assay; also called hCLDN18.2; human CLDN18.2 antigen
Experimental: (§1) NUGC4 and NUGC4-hCLDN18.2 cells were cultured, digested with pancreatin and centrifuged to collect cells. The cells were collected and resuspended in buffer (PBS+1% FBS) at 1×10⁴ cells/well in a 96-well plate at 100 μL per well. Then the mixture was centrifuged at 350×g for 5 min, and the supernatant was removed.

Human CLDN18.2 [2] = molecular target: T2, Human CLDN18.2; test: cell-based or functional assay
Human CLDN18.2 [3] = molecular target: T2, Human CLDN18.2; test: flow cytometry, NUGC4 cells (endogenous CLDN18.2)
Experimental: as §1

Human CLDN18.2 [4] = molecular target: T2, Human CLDN18.2; test: cell-based or functional assay; remark: listed apart in the source
Human CLDN18.2 [5] = molecular target: T2, Human CLDN18.2; test: cell-based or functional assay; remark: listed apart in the source
Human CLDN18.2 [6] = molecular target: T2, Human CLDN18.2; test: flow cytometry, NUGC4-hCLDN18.2 cells; remark: listed apart in the source
Experimental: as §1

Human CLDN18.2 [7] = molecular target: T2, Human CLDN18.2; test: flow cytometry, NUGC4 cells (endogenous CLDN18.2); remark: listed apart in the source
Human CLDN18.1 = molecular target: T3, Human CLDN18.1 (human, UniProt P56856 1-261); test: flow cytometry, 293T-hCLDN18.1 cells
T3 construct: also called hCLDN18.1

| Binder | Kd (human CD3 antigen) | EC50 (Human CLDN18.2 [1]) | EC50 (pM), in vitro killing by hPBMC, NUGC4-hCLDN18.2 cells (Human CLDN18.2 [2]) | EC50 (pM), in vitro killing by hPBMC, NUGC4 cells (Human CLDN18.2 [2]) | EC50 (Human CLDN18.2 [3]) | Induction of expression of CD25 EC50 (pM), NUGC4 (Human CLDN18.2 [4]) | Induction of expression of CD25 EC50 (pM), NUGC4-hCLDN18.2 (Human CLDN18.2 [4]) | Induction of expression of CD69 EC50 (pM), NUGC4 (Human CLDN18.2 [4]) | Induction of expression of CD69 EC50 (pM), NUGC4-hCLDN18.2 (Human CLDN18.2 [4]) | EC50 value for killing effect on NUGC4-hCLDN18.2 cells (Human CLDN18.2 [5]) | EC50 value for killing effect on NUGC4 cells (Human CLDN18.2 [5]) | EC50 (Human CLDN18.2 [6]) | EC50 (Human CLDN18.2 [7]) | binding result (Human CLDN18.1) |
| --- | --- | --- | --- | --- | --- | --- | --- | --- | --- | --- | --- | --- | --- | --- |
| B1 | 10 nM | 31.5 nM | 0.698 pM | 0.333 pM | 64 nM | 5.38 pM | 5.45 pM | 0.461 pM | 1.45 pM | – | – | – | – | – |
| B2 | – | – | – | – | – | – | – | – | – | < 0.01 nM | < 0.01 nM | < 50 nM | < 100 nM | no binding |
| B3 | – | – | – | – | – | – | – | – | – | < 0.01 nM | < 0.01 nM | < 50 nM | < 100 nM | no binding |
| B4 | 5.74 nM | 24.4 nM | 0.378 pM | 137 pM | 58.9 nM | 12.2 pM | 0.962 pM | 0.61 pM | 0.67 pM | – | – | – | – | – |

— patent publication US20230192903A1 (published 2023)
